The values that follow come from US20250011410A1 (INVETX, published 2025).

For this experiment, the target named is T1, canine NGF tagged at the C-terminus with the Flag tag (canine, UniProt A0A8I3PYI3 122-241).
T1 construct: mature; Expressed with baculovirus technology; also called feline NGF (processed form identical)
As to the kind of experiment: SPR off-rate assay, Fab-SASA on BSA chip.

T1 sequence (A0A8I3PYI3 entry or part of it): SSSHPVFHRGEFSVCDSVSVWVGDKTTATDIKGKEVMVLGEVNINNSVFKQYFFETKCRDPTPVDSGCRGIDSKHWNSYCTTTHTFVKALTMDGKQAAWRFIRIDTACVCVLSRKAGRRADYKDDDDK

B1: AHF17591 (Fab, V domains shown, not shown: small tags and cut ends)
VH: DVQLVESGGDLVKPGGSLRLTCVASGLSLTSSSMVWVRQAPGKGLQWVSTIYSNRGTYYTDSVKGRFTISKDNAENTLYLQMNNLKTEDTATYYCASIYYYDADYLHWYFDEWGQGALVTVSS
VL: EIQMTQSPTSLSASVGDRVTITCRASEGIANNLSWYQQTPGKAPKLLIYATSILHSGVPSRFSGSGSGTDFTLTISSLQPEDFATYYCQQGYKWPLTFGGGTKLEITR
In general, Kd refers to the equilibrium constant for the complex coming apart. A low value points to tighter binding. The koff is a measure of how fast the partners let go of each other. Read a high koff as fast dissociation. A word on the kon: it is the rate constant with which the complex forms. The low end stands for slow association, the high end for fast association. Consider B1, for which the Kd is no more than 0.00373 nM, the “Ratio (KD) WT/clones” value was 926, the “Ratio (kd) WT/clones” value worked out at 1680 and the off-rate (koff) is no more than 1e-06 s⁻¹. Moreover, the kon amounted to 268000 M⁻¹ s⁻¹.

B2: AHF17599 (Fab, V domains shown, not shown: small tags and cut ends)
VH: DVQLVESGGDLVKPGGSLRLTCVASGLSLTSSSMVWVRQAPGKGLQWVSTIYSNRGTYYTDSVKGRFTISKDNAENTLYLQMNNLKTEDTATYYCASIYYYDADYLHWYFDFWGQGALVTVSS
VL: EIQMTQSPTSLSASVGDRVTITCRASEGIANNLSWYQQTPGKAPKLLIYATSVLHSGVPSRFSGSGSGTDFTLTISSLQPEDFATYYCQQGYKWPLTFGGGTKLEITR
In the case of B2, the Kd was no more than 0.00472 nM, the “Ratio (KD) WT/clones” value is 732, the “Ratio (kd) WT/clones” value is 1680 and the koff is no more than 1e-06 s⁻¹. For the same molecule, the kon stood at 212000 M⁻¹ s⁻¹.

B3: AHF17600 (Fab, V domains shown, not shown: small tags and cut ends)
VH: DVQLVESGGDLVKPGGSLRLTCVASGLSLTSSSMVWVRQAPGKGLQWVSTIYSNRGTYYTDSVKGRFTISKDNAENTLYLQMNNLKTEDTATYYCASIYYYDADYLHWYFDFWGQGALVTVSS
VL: EIQMTQSPTSLSASVGDRVTITCRASEGISNNLSWYQQTPGKAPKLLIYATSVLHSGVPSRFSGSGSGTDFTLTISSLQPEDFATYYCQQGYKWPLTFGGGTKLEITR
For B3, the equilibrium dissociation constant (Kd) was 0.329 nM, the “Ratio (KD) WT/clones” value amounted to 10.5, the “Ratio (kd) WT/clones” value was 29 and the dissociation rate constant (koff) came out at 5.81e-05 s⁻¹. The molecule further registered an association rate constant (kon) of 177000 M⁻¹ s⁻¹.

B4: AHF17604 (Fab, V domains shown, not shown: small tags and cut ends)
VH: DVQLVESGGDLVKPGGSLRLTCVASGLSLTSSSMVWVRQAPGKGLQWVSTIYSNRGTYYTDSVKGRFTISKDNAENTLYLQMNNLKTEDTATYYCAQIYYYDADYLHWYFDFWGQGALVTVSS
VL: EIQMTQSPTSLSASVGDRVTITCRASEGIQNNLSWYQQTPGKAPKLLIYATSILHSGVPSRFSGSGSGTDFTLTISSLQPEDFATYYCQQGYKWPLTFGGGTKLEITR
notes: Fab-SASA, combinatorial library
Turning to B4, the equilibrium dissociation constant (Kd) worked out at 0.321 nM, the “Ratio (KD) WT/clones” value came out at 10.8, the “Ratio (kd) WT/clones” value was 36.2 and the dissociation rate constant (koff) came to 4.66e-05 s⁻¹. For the same molecule, the kon is 145000 M⁻¹ s⁻¹.

B5: AHF17597 (Fab, V domains shown, not shown: small tags and cut ends)
VH: DVQLVESGGDLVKPGGSLRLTCVASGLSLTSSSMVWVRQAPGKGLQWVSTIYSNRGTYYTDSVKGRFTISKDNAENTLYLQMNNLKTEDTATYYCASIYYYDADYLHWYFDFWGQGALVTVSS
VL: EIQMTQSPTSLSASVGDRVTITCRASEGIQNNLSWYQQTPGKAPKLLIYATSILHSGVPSRFSGSGSGTDFTLTISSLQPEDFATYYCQQGYKWPLTFGGGTKLEITR
B5: the Kd came out at 0.0544 nM, the “Ratio (KD) WT/clones” value stood at 63.5, the “Ratio (kd) WT/clones” value is 156 and the koff was found to be 1.08e-05 s⁻¹. The same molecule yielded an association rate constant (kon) of 199000 M⁻¹ s⁻¹.

B6: AHF17594 (Fab, V domains shown, not shown: small tags and cut ends)
VH: DVQLVESGGDLVKPGGSLRLTCVASGLSLTSSSMVWVRQAPGKGLQWVSTIYSNGGTYYTDSVKGRFTISKDNAENTLYLQMNNLKTEDTATYYCASIYYYDADYLHWYFDFWGQGALVTVSS
VL: EIQMTQSPTSLSASVGDRVTITCRASEGIANNLSWYQQTPGKAPKLLIYATSVLHSGVPSRFSGSGSGTDFTLTISSLQPEDFATYYCQQGYKWPLTFGGGTKLEITR
On to B6, for which the dissociation constant (Kd) was 0.931 nM, the “Ratio (KD) WT/clones” value is 3.71, the “Ratio (kd) WT/clones” value was 5.14 and the dissociation rate constant (koff) was found to be 0.000328 s⁻¹. Also, the on-rate constant (kon) is 353000 M⁻¹ s⁻¹.

B7: AHF17603 (Fab, V domains shown, not shown: small tags and cut ends)
VH: DVQLVESGGDLVKPGGSLRLTCVASGLSLTSSSMVWVRQAPGKGLQWVSTIYSNGGTYYTDSVKGRFTISKDNAENTLYLQMNNLKTEDTATYYCASIYYYDADYLHWYFDEWGQGALVTVSS
VL: EIQMTQSPTSLSASVGDRVTITCRASEGIANNLSWYQQTPGKAPKLLIYATSILHSGVPSRFSGSGSGTDFTLTISSLQPEDFATYYCQQGYKWPLTFGGGTKLEITR
On to B7, for which the affinity, expressed as Kd, was 0.664 nM; the “Ratio (KD) WT/clones” value was 5.2; the “Ratio (kd) WT/clones” value stood at 6.88; the koff was found to be 0.000245 s⁻¹. The association rate constant (kon) was found to be 368000 M⁻¹ s⁻¹.

B8: AHF17593 (Fab, V domains shown, not shown: small tags and cut ends)
VH: DVQLVESGGDLVKPGGSLRLTCVASGLSLTSSSMVWVRQAPGKGLQWVSTIYSNRGTYYTDSVKGRFTISKDNAENTLYLQMNNLKTEDTATYYCAQIYYYDADYLHWYFDFWGQGALVTVSS
VL: EIQMTQSPTSLSASVGDRVTITCRASEGIANNLSWYQQTPGKAPKLLIYATSVLHSGVPSRFSGSGSGTDFTLTISSLQPEDFATYYCQQGYKWPLTFGGGTKLEITR
notes: as for B4
B8: the Kd is no more than 0.00613 nM, the “Ratio (KD) WT/clones” value came to 563, the “Ratio (kd) WT/clones” value turned out to be 1680 and the off-rate constant (koff) is no more than 1e-06 s⁻¹. Moreover, the kon came to 163000 M⁻¹ s⁻¹.

B9: AHF17601 (Fab, V domains shown, not shown: small tags and cut ends)
VH: DVQLVESGGDLVKPGGSLRLTCVASGLSLTSSSMVWVRQAPGKGLQWVSTIYSNRGTYYTDSVKGRFTISKDNAENTLYLQMNNLKTEDTATYYCAQIYYYDADYLHWYFDEWGQGALVTVSS
VL: EIQMTQSPTSLSASVGDRVTITCRASEGIANNLSWYQQTPGKAPKLLIYATSNLHSGVPSRFSGSGSGTDFTLTISSLQPEDFATYYCQQGYKWPLTFGGGTKLEITR
Regarding B9, the equilibrium dissociation constant (Kd) is no more than 0.00344 nM, the “Ratio (KD) WT/clones” value was 1010, the “Ratio (kd) WT/clones” value is 1680 and the off-rate (koff) is no more than 1e-06 s⁻¹. The molecule further yielded a kon of 291000 M⁻¹ s⁻¹.

B10: AHF17595 (Fab, V domains shown, not shown: small tags and cut ends)
VH: DVQLVESGGDLVKPGGSLRLTCVASGLSLTSSSMVWVRQAPGKGLQWVSTIYSNRGTYYTDSVKGRFTISKDNAENTLYLQMNNLKTEDTATYYCASIYYYDADYLHWYFDEWGQGALVTVSS
VL: EIQMTQSPTSLSASVGDRVTITCRASEGIQNNLSWYQQTPGKAPKLLIYATSNLHSGVPSRFSGSGSGTDFTLTISSLQPEDFATYYCQQGYKWPLTFGGGTKLEITR
B10: the Kd was no more than 0.00562 nM, the “Ratio (KD) WT/clones” value stood at 615, the “Ratio (kd) WT/clones” value was 1680 and the off-rate (koff) is no more than 1e-06 s⁻¹. For the same molecule, the on-rate (kon) came out at 178000 M⁻¹ s⁻¹.

B11: AHF17605 (Fab, V domains shown, not shown: small tags and cut ends)
VH: DVQLVESGGDLVKPGGSLRLTCVASGLSLTSSSMVWVRQAPGKGLQWVSTIYSNGGTYYTDSVKGRFTISKDNAENTLYLQMNNLKTEDTATYYCAQIYYYDADYLHWYFDFWGQGALVTVSS
VL: EIQMTQSPTSLSASVGDRVTITCRASEGIANNLSWYQQTPGKAPKLLIYATSILHSGVPSRFSGSGSGTDFTLTISSLQPEDFATYYCQQGYKWPLTFGGGTKLEITR
notes: as for B4
Take B11: the Kd was found to be 0.82 nM, the “Ratio (KD) WT/clones” value turned out to be 4.21, the “Ratio (kd) WT/clones” value stood at 8.14 and the dissociation rate constant (koff) was 0.000207 s⁻¹. The molecule also displayed an on-rate (kon) of 253000 M⁻¹ s⁻¹.

B12: AHF17598 (Fab, V domains shown, not shown: small tags and cut ends)
VH: DVQLVESGGDLVKPGGSLRLTCVASGLSLTSSSMVWVRQAPGKGLQWVSTIYSNRGTYYTDSVKGRFTISKDNAENTLYLQMNNLKTEDTATYYCASIYYYDADYLHWYFDEWGQGALVTVSS
VL: EIQMTQSPTSLSASVGDRVTITCRASEGIANNLSWYQQTPGKAPKLLIYATSILHSGVPSRFSGSGSGTDFTLTISSLQPEDFATYYCQQGYKWPLTFGGGTKLEITR
B12: the equilibrium dissociation constant (Kd) stood at 0.179 nM, the “Ratio (KD) WT/clones” value was determined as 19.3, the “Ratio (kd) WT/clones” value came out at 32.1 and the off-rate (koff) came to 5.25e-05 s⁻¹. The same molecule gave a kon of 294000 M⁻¹ s⁻¹.

B13: AHF17602 (Fab-SASA) (Fab, V domains shown, not shown: small tags and cut ends)
VH: DVQLVESGGDLVKPGGSLRLTCVASGLSLTSSSMVWVRQAPGKGLQWVSTIYSNRGTYYTDSVKGRFTISKDNAENTLYLQMNNLKTEDTATYYCASIYYYDADYLHWYFDFWGQGALVTVSS
VL: EIQMTQSPTSLSASVGDRVTITCRASEGIANNLSWYQQTPGKAPKLLIYATSNLHSGVPSRFSGSGSGTDFTLTISSLQPEDFATYYCQQGYKWPLTFGGGTKLEITR
Consider B13, for which the Kd was no more than 0.00476 nM, the “Ratio (KD) WT/clones” value amounted to 726, the “Ratio (kd) WT/clones” value was 1680 and the dissociation rate constant (koff) was no more than 1e-06 s⁻¹. Further, the on-rate constant (kon) came out at 210000 M⁻¹ s⁻¹.

B14: AHF17596 (Fab, V domains shown, not shown: small tags and cut ends)
VH: DVQLVESGGDLVKPGGSLRLTCVASGLSLTSSSMVWVRQAPGKGLQWVSTIYSNRGTYYTDSVKGRFTISKDNAENTLYLQMNNLKTEDTATYYCASIYYYDADYLHWYFDFWGQGALVTVSS
VL: EIQMTQSPTSLSASVGDRVTITCRASEGIANNLSWYQQTPGKAPKLLIYATSVLHSGVPSRFSGSGSGTDFTLTISSLQPEDFATYYCQQGYKWPLTFGGGTKLEITR
For the molecule B14, the equilibrium dissociation constant (Kd) was 0.0802 nM, the “Ratio (KD) WT/clones” value is 43.1, the “Ratio (kd) WT/clones” value amounted to 92.6 and the koff was 1.82e-05 s⁻¹. The same molecule displayed a kon of 227000 M⁻¹ s⁻¹.

B15: AHF17592 (Fab, V domains shown, not shown: small tags and cut ends)
VH: DVQLVESGGDLVKPGGSLRLTCVASGLSLTSSSMVWVRQAPGKGLQWVSTIYSNRGTYYTDSVKGRFTISKDNAENTLYLQMNNLKTEDTATYYCASIYYYDADYLHWYFDFWGQGALVTVSS
VL: EIQMTQSPTSLSASVGDRVTITCRASEGISNNLSWYQQTPGKAPKLLIYATSVLHSGVPSRFSGSGSGTDFTLTISSLQPEDFATYYCQQGYKWPLTFGGGTKLEITR
With B15, binding was characterised by a dissociation constant (Kd) of 0.0761 nM, the “Ratio (KD) WT/clones” value came out at 45.4, the “Ratio (kd) WT/clones” value came out at 115 and the off-rate (koff) is 1.46e-05 s⁻¹. Besides, the on-rate constant (kon) is 192000 M⁻¹ s⁻¹.
